Assay [1] addresses Xmad2 (Xenopus laevis (endogenous in egg extracts)). In words: co-IP.
Assay [2] addresses Xmad1 (Xenopus laevis (endogenous in egg extracts)). Put plainly: co-IP.

Substance Xmad1 (natural protein) yielded a percent of Xmad1 removed by immunodepletion of Xmad2 in assay [1] above 95%.

Take Xmad2 (natural protein): in assay [2], the percent of Xmad2 bound with Xmad1 was 40%.

These data come from article PMC2132829.
